Source: the nanobody polyreactivity screen of Harvey et al. (2022)

Assay: yeast display, Sf9 membrane polyspecificity reagent, FACS + sequencing; frameworks hold sequencing errors
Procedure, shortened: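 Polyreactivity labels are assigned by the sorting gate from which each nanobody was recovered. The gates were low and high (top ~1%), set on anti-HA fluorescence for expression and streptavidin fluorescence for reagent binding. Before sorting, galactose-induced (36–48 hours) yeast display cells were stained for 1 hour at 4 °C with 10% biotinylated, detergent-solubilized Sf9 membrane reagent.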

| Sequence | polyreactivity (PSR sort gate) |
| --- | --- |
| QVQLVESGGGLVQAGGSLRLSCAASGSIFGNYVMGWYRQSPGKERELVAAISWSGGTNYADSVKGRFTISRDNAKNTVYLQMNSLKPEDTAVYYCATVIRGHKRFAYGYWGQGTQVTVSS | high polyreactivity |
| QVQLVESGGGLVQAGGSLRLSCAASGFTFIGYAMGWYRQAPGKEREFVAAITSGGSTYYADSVKGRFTISRDNAKNTVYLQMNSLKPEDTAVYYCAARSVYTASYRRVWINPQLDYWGQGTQVTVSS | high polyreactivity |
| QVQLVESGGGLVQAGGSLRLSCAASGLTFQSYDMGWYRQAPGKERELVAAISRRGGSTYYADSVKGRFTISRDNAKNTVYLQMNSLKPEDTAVYYCAAEYRSWSWRMDYWGQGTQVTVSS | high polyreactivity |
| QVQLVESGGGLVQAGGSLRLSCAASGSTLVIYAMGWYRQAPGKERELVAAINFSDGSTSYADSVKGRFTISRDNAKNTVYLQMNSLKPEDTAVFYWGQGTQVTVSS | low polyreactivity |
| QVQLVESGGGLVQAGGSLRLSCAASGRIIDRNAMGWYRQAPGKERELVAAISSSGSTNYADSVKGRFTISRDNAKNTVYLQLNSLKPEDTAVYYCAARWRSVLASGTRPVSFDYWGQGTQVTVSS | low polyreactivity |
| QVQLVESGGGLVQAGGSLRLSCAASGRIFQYYTMGWYRQAPGKERELVAAITYSGGDTRYADSVKGRFTISRDNAKNTVYLQMNSLKPEDTAVYYCAAHYFHQYQYGVWTYGYWGHGTQVTVSS | low polyreactivity |
| QVQLVESGGGLVQAGGSLRLSCAASGRTFSAYAMGWYRQAPGKEREFVAAITFNTGSTYYADSVKGRFTISRDNAKNTVYLQMNSLKPEDTAVYYCAAALVGSVGYKGFDGFDYWGQGTQVTVSS | low polyreactivity |
| QVQLVESGGGLVQAGGSLRLTCAASGLIFPFYAMGWYRQATGKERELVAAISSRGGSTYYADSVKGRFTISRDNAKNTVYLQMSSLKPEDTAVYYCAADYGEEYEYSGQGTQVTVSS | high polyreactivity |
| QVQLVESGGRLVQAGGSLRLSCAASGSTFNRYAMGWYRQAPGKERELVAAISRGGSTTYADSVKGRFTISRDNAKHTVYLQMYSLKPEDTAVYYCAALYYSPRYWYDYWGLGTQVTVSS | high polyreactivity |
| QVQLVESGGGLVQAGGSLRLSCAASGSIFNTYAMGWYRQAPGKERELVAAITWSGGSTYYADSVKGRFTISRDNAKNTVYLQMNSLKPEDTAVYYCAARQRRQSYWGQGTQVTVSS | high polyreactivity |
| QVQLVDSAGGLVQAGGILRLSCAASGFTFDAKSRGWYRQAPGTERELVDAISLSDGSTYYADSVKGRFTISRDNAKNTVYLQMNSLKPEDTAVYYCNAERFGSGLAWLLFDYWGQGTQVTVSS | low polyreactivity |
| QVQLVESGGGLVQAGGSLRLSCAASGRTFWINAMGWYRQAPGKERELVAAITRGGRTYADSVKGRFTISRDNAKYTVYLQMNSLKPEDTAVYYCAAESYRLSGHHGYDYWGQCTQVTVSS | high polyreactivity |
| QVQLVESGGGLVQAGGSLRLSCAASGRIFLSNAMGWYRQAPGKERELVASITSGGSTNYADSVKGRFTISRDNAKNTVYLQMNSLKPEDTAVYYCAKRYRHSGYFVGFNYWGQGTQVTVSS | high polyreactivity |
| QVQLVESGGGLVQAGGSLRLSCAASGRIFRGYAMGWYRPAPGKERELVAAIDTDTGITYYADSVKGRFTISRVNAKNTVNLQMNSLKPEDTAVYYCAAETYYAVSTGYYFDYWGQGTQVTVSS | high polyreactivity |
| QVQLVESGGGLVQAGGSLRLSCAASGGTFRNNAMGWYRQAPGKERELVAAISWSGGRTYYADSVKGRFTISRDNAKNTVYLQMNSLKPEDTAVYYCAASYSGRQDRYPHYDYWGQGTQVTVSS | low polyreactivity |
| QVQLVESGGGLVQAGGSLRLICAASGITFPHYAMGWYRQAPGKEREYVAAISKRAGSTYYADSVKGRFTISLDNAKNTVYLQMNSLKPEDTSVYYCAADDRYYSPYGFKYWGQCTQVTVSS | high polyreactivity |

| Sequence | polyreactivity (PSR sort gate) |
| --- | --- |
| QVQLVESGGGLVQAGGSLRLSCAASGRIFYKYVMGWDRQAPGKERELVADINRSGGTTYYADSVKGRFTISRDNAKNTVYLQMNSLKPEDTAVYYCTATLPDYWPYYYYQGGDDYWGQGTQVNVSS | low polyreactivity |
| QVQLQESGGGLVQAGGSLCLSCAASGTIFFDGDMGWYRQAPGKEREFVAAINPGGSAYYADSVKGRLPLAAITHTVYLQMISLKPEDTAVYYCAAKLFDVYGYYYWGQGTHVTVSS | low polyreactivity |
| QVQLVESGGGLVQAGGSLRLSCAASGSTIPSYAMGWYRQAPGKERELVASITYSDGTTRYADSVKGRFTISRDNAMNPVYFQMNSLKPEDSAVYYCNAVYYREGMDYWGQGTQVTVSS | low polyreactivity |
| QVQLVESGGGLVQAGGSLRLICDASGSTFAYNDMGWYRQAPGKERELVAAITYSGGSTYYADSVKGRFTISRDNAKNTVSLQMNSLKPEDTAVYYCNAYTGYPYEYWGQGTQVTVSS | low polyreactivity |
| QVQLVESWGGLVQAGGSLRLSCAASGSTFRRNAMGCYRQAPGKERELVAAITRSGDSTYYADSVKGRFTISRDYAKNTVYLQMNSLKPEDTAVYYCAADSSRYRYRNQGYYWGQGTQVTVSS | high polyreactivity |
| QVQLVESGGCLVQAGGSLRLSCAASGSTLGYYVMGWYRQAPGKERELFAAITGCGSTDYADSVKGRFTISRDNAKNTVYLQMNSLIPEDTAVYYCAAERTRTGQLFWWGPIYDYWGQGTQVTVSS | low polyreactivity |
| QVQLVESGGGLVQAGCSLRLSCAASGLTFHWYTMGWYRQAPGKERELVATINSGGSTDYADSVKGRFTISRDNAKNTVYLQMNSLKPEDTAVYYCNAEYGYSGVGDDYWGQGTQVTVSS | low polyreactivity |
| QVQLVESGGGLVQAGGSLRLSCAASGRTFPTYAMGWDRQAPGKERELVAAITTSGGSTYADSVMGRFTISRDNAKNTVYLQMNSLKPEDTAVYYCATRSFYGGYYYSSGSEFDYWGQGTQVTVSS | low polyreactivity |
| QVQLVESGGGLVQAGGSLRLSCAPSGIIFPTYAMGWYRQAPGKERELVAAIRWNGGSTYYADSVKGRFTISRDNAKNTVFLQMTILKPEDTAVYYCAAGYRGSYKYYYWGQGTQVTVSS | high polyreactivity |
| QVQLVESGGGLVQAGGSLRLSCAASGLTFSKYAMGWYRQAPGQERELVAAITRGDRTYSADSVKGRFTISRDNAKNTVYLQMNSLKPEDTAVYYCAARQYYWGQGTQVTVSS | high polyreactivity |
| QVQLVESGGGLVQAGGSLRLSCAASGSIFRYYAMGWYRQAPGKERELVAVITSSGTSTYYADSVKGRFTISRDNAKNTVYLQMNSLKPEDTAVYYCARRSSGELRYHIYDYWGQGTQVTLSS | low polyreactivity |
| QVQLVESGGGLVQAGGSLRLSCAASGSIFYVYAMGRYRQAPGKERELVASINKSGGSTYYADSVKGRFTISRDNAKNTVYLQMNSLKPEDTAVYYCAARTGWPRVGFQYPAHVGFDYWGQGTQVTVSS | low polyreactivity |
| QVQLVESGGGLVQAGGSLRLICAASGSIFGNYVMGWYRQAPGKEMELVAGISTRGGSTYYADSVKGRFTISRDNAKNTVYLQMNCLKPEDTAVYYCAAVPASYRYPMYYWGQGTQVTVSS | low polyreactivity |
| QVQLVESGGGLVQAGGSLRLSCDASGRIIAFYVMGWYRQAPGKERELVAAITSGGNTNYADSVKGRFTISRDNAKNTVYLQMNSLKPEDTAVYYCAVPVLTYVSDYYWGQGTQVTVSS | low polyreactivity |
| QVQLVESGGGLVQAGGSLRLSCAASGSTFWYYAMGWYRQAPGKEREFVAAITTSAGRTYDADSVKGRFTISRDHAKNTVYLQMNSLKPEDTAVYYCAAEPRQYWEYNYWGQGTQVTVSS | high polyreactivity |
| QVQLVESGGGLVQAGGSLRLSCAASGRTLGVYAMGWYRQAPGKERELVATITSGDGTNYADSVKGRFTISRDNAKNTVYLQMNSLKPVDTAVYYCNAEAKSQWFVYPYWYWPLYDYWGPGTQVTVSS | low polyreactivity |
